Data on 17 molecules can be found in patent publication US20170166631A1 (NEURIMMUNE, published 2017).

The target of assay [1] is T1, HD21 (huntingtin exon 1 protein with 21 polyQ repeats after cleavage of the GST tag; aggregation reaction) (human, UniProt P42858 1-88).
T1 construct: domain: Exon1; Residues left by the protease site are not described; Aggregated preparation or time-resolved aggregation reaction; also called aggregated HD21; HttExon1Q21
In words: direct ELISA, antigen coated at 5 ug/ml.

Assay [2] addresses T2, GST-HttExon1Q21 (recombinant huntingtin exon 1 protein with 21 polyQ repeats fused to an N-terminal GST tag) (human, UniProt P08515 1-218 = GST; P42858 1-88).
T2 construct: Expressed in E. coli BL21; also called GST-HD21; soluble GST-HD21; not shown: PreScission cleavage site
Briefly: direct ELISA, antigen coated at 5 ug/ml.

Assay [3] has as its target T1, HD21 (huntingtin exon 1 protein with 21 …). Briefly: direct ELISA (Example 25, FIG. 20).
Assay [4] has as its target T3, HD35 (huntingtin exon 1 protein with 35 polyQ repeats after cleavage of the GST tag; aggregation reaction) (human, UniProt P42858 1-88).
T3 construct: domain: Exon1; Residues left by the protease site are not described; Time-resolved aggregation reaction; also called HD35 aggregates; HttExon1Q35
Briefly: filter retardation assay (SDS stable aggregates).

Assay [5] deals with T2, GST-HttExon1Q21 (recombinant huntingtin …). Briefly: direct ELISA.
For assay [6], the target named is T4, HD49 (huntingtin exon 1 protein with 49 polyQ repeats after cleavage of the GST tag; aggregation reaction) (human, UniProt P42858 1-88).
T4 construct: domain: Exon1; Residues left by the protease site are not described; Aggregated preparation or time-resolved aggregation reaction; also called aggregated HD49; aggregated HTT Exon1 HD49
Briefly: direct ELISA; reference HD21; aggregated or GST-fused form not said.

T2 sequence (P08515 1-218, tags or fused parts left off): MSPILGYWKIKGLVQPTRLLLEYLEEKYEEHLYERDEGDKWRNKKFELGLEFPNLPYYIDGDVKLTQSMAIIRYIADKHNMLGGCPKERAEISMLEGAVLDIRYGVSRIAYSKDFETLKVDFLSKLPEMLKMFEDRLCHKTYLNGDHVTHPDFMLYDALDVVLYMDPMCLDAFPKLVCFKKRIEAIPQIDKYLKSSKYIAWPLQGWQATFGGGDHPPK
T1 sequence (P42858 1-88 limits assumed, change not shown): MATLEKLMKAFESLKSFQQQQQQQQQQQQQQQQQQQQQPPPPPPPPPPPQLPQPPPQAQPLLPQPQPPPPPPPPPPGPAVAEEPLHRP
T3 sequence (P42858 other isoform, or with tags, fused parts or gaps limits assumed): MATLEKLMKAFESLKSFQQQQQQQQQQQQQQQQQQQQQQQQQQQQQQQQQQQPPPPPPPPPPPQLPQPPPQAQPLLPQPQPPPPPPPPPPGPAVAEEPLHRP
T4 sequence (P42858 other isoform, or with tags, fused parts or gaps limits assumed): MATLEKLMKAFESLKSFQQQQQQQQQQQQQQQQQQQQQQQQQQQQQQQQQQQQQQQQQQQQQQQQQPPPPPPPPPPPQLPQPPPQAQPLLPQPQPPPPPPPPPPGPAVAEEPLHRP

B1: NI-302.74C11 (antibody, V domains shown)
VH: EVQLVQSGTEVQKPGASVKVSCKASGYSFTGYFLHWVRQAPGQGLEWMGWINPNSGDTNYAEKFRGRIIMTRDTSVSTAHMELSSLRFDDTALYYCTREAPDPGAETDVWGQGTTVTVSS
VL: QSVLTQPPSVSVSPGQTARITCSGDAVPKQYIYWYQQKPGQAPILVIYKDTQRPSGIPERFSGSNSGTTVTLTITGVQADDEGDYYCQSADSSATWVFGGGTKLTVL
As for B1, the binding result in assay [1] and in assay [2] was “binds” throughout.

B2: NI-302.6N9 (antibody, human IgG1, V domains shown)
VH: EVQLVESGGDLVQPGGSLRLSCVVSGFTFSSYAMTWVRQAPGKGLAWVSTISATGGSTFYTDSVRGRFTISRDNSKNTLYLQMNSLRTDDTAIYYCVKDLFGVDTSYYGMDVWGQGTTVTVSS
VL: EIVLTQSPGTLSLSPGERATLSCRPSQSVSGRYVAWYQQKPGQAPRLLFYAASNRAIGIPDRFSGSGSGTDFTLTISRLEPEDFAVYYCQHYGASSYTFGPGTKVDIK
notes: Expressed as complete human IgG1
As to B2, in assay [3], the binding result is reported as “binds”.

B3: NI-302.63F3 (antibody, V domains shown)
VH: QVQLVQSGSAFKKPGTSVKVSCKASGYTFETRSMNWVRQAPGQGLEYMGWINTNTGNRTYVQAFRGRFVFSLDTSVSTAYLQISNLKTEDTAVYYCARGAGGGYWFDSWGQGTLVTVSS
VL: DIQMTQSPDSLAVSLGERATINCKSNQSLFYSSNNNNYLAWYQHKSGQPPKLLVYWGSTRESGVPDRFSGSGSGTDFTLTISSLQAEDVAIYYCHQYYHNPYTFGQGTKLEIK
notes: also called anti-P-rich domain antibody; anti-proline-rich domain antibody
As to B3, the binding result in assay [1] and in assay [2] was “binds” in each case.

B4: NI-302.22H9 (antibody, V domains shown)
VH: EVQLVESGGGLVHPWGSLRVSCAASGFSVSNYAITWVRQAPGKGLEYISVIYRDGRTYYGDSVRGRFTISRDDSKNTIYLQMNSLRFEDTAVYYCARAHGQYYYGVDVWGQGTTVTVSS
VL: DVVMTQSPLSLSVSPGEPASISCRSSQSLLHSNGYNYLDWYRQKPGQSPQLLIYLNSNRASGVPDRFSGSGSGTEFTLTISRVEAEDVGVYYCMQSLQTFTFGGGTKVEIK
Turning to B4, the binding result in assay [2] was “binds”.

B5: NI-302.35C1 (antibody, V domains shown)
VH: EVQLVESGGNLVQPGGSLRLSCTASGFTFSITALSWVRQAPEKGPQWVSAITGNAYGTYYADSVKGRFTISRDNAKNTLYLQMNGLRAEDTAIYYCVKGIASDSSGYSAFWGPGTLVTVSS
VL: EIVLTQSPATLSLSPGERATLSCRASQSVDNQFAWYQQKPGQAPRLLIYDASRRAPGIPDRFSGSGSGTDFTLTISSLEPEDFAIYYCQHRYTWLYTFGQGTRLEIK
notes: also called anti-C-terminal domain antibody
Take B5: the binding result in assay [2] is recorded as “binds”.

B6: NI-302.64E5 (antibody, V domains shown)
VH: EVQLVETGGGLVKPGGSLRLSCAASGFTFDQAWMSWVRQVPGKGLEWVGRIKTKTEGEATDYAAPVRGRFTISRDDSEDTVFLQMNSLKTEDTALYYCTSTGVLAAAVDVYWGQGTLVTVSS
VL: DIQLTQSPDSLAVSLGERATMTCKSSQSLFYSYNNENYLAWYQQRPGQPPKLLIYWASTRESGVPDRFSGSGSGTDFTLTISSLQAEDVAVYYCQQYYSTPQTFGQGTKVDIK
Regarding B6, the binding result in assay [2] is reported as “binds”.

B7: NI-302.44D7 (antibody, human IgG1, V domains shown)
VH: EVQLVQSGGGLVQPGGSLRLSCAASGFTFSSYAMSWVRQAPGKGLEWVSGIGYSDTSTYYADSVKGRFTVSRDISKNTLYLQMNSLRAEDTAVYYCAKGTRDYYGMDVWGQGTMVTVSS
VL: QTVVTQEPSFSVSPGGTVTLTCGLSSGSVSTSYYPSWYQQTPGRAPRTLIYSTNTRSSGVPDRFSGSILGNKAALTITGAQADDESDYYCVLFMGSGIGVFGGGTRLTVL
notes: as for B2
On to B7, for which the binding result in assay [4] is recorded as “no binding (tested: 0.2 µg/ml primary antibody)”.

B8: NI-302.55D8 (antibody, V domains shown)
VH: QVQLVQSGSEVKKPGASVKVSCKASGYTFTDYYIHWVRQAPGQGLEWMGRINPNNGGTNYAQNFQGWVTMTRDTSISTAYMELSRLRSDDTAVYYCARVGGELLREGGYHYYMDVWGKGTTVTVSS
VL: QSVLTQPPSVSGAPGQRVTISCTGNSSNIGAGYDVHWYQQLPGTAPKLLIFDNTNRPSGVPDRFSGSKSGTSASLAITGLQAEDEANYHCQSYDNSLSGSWVFGGGTKLTVL
Take B8: the binding result in assay [2] is given as “binds”.

B9: NI-302.37C12 (antibody, V domains shown)
VH: EVQLVESGGGLVQPGGSLRLSCVASALTVTNSQMTWVRRAPGRGLEWVSVIYTSGSAYYADSVKGRFTISRDNSKNTVFLQMNSLRVEDTAVYYCAKGPSAYYYGLDLWGQGTTVTVSS
VL: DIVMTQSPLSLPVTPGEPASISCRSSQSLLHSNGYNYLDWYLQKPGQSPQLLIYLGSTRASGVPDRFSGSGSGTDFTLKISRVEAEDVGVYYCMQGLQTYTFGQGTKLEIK
As to B9, the binding result in assay [2] was “binds”; in assay [4], “no binding (tested: 0.2 µg/ml primary antibody)”.

B10: NI-302.11A4 (antibody, V domains shown)
VH: EVQLVESGGGLIQPGGSLRLSCAASGFPVSSSYMSWVRQAPGEGLEWVSVLYRDGDTYYADSVQGRFTISRDNSQNTFYLQMNSLKAEDTAVYYCAGDRRSSHYYYGMDVWGQGTTVTVSS
VL: EIVMTQSPGTLSLSPGERATLSCRASQSVSSSYFAWYQQKPGQAPRLLIYGTSRRATAIPDRFSGSGSGTDFTLTISRLEPEDFAVYYCQQYGSSWTFGPGTKVEIK
In the case of B10, in assay [2], the binding result is listed as “binds”.

B11: NI-302.71F6 (antibody, V domains shown)
VH: QVQLQQWGAGLLKPSETLSLTCAVYGGSLSGYYWSWIRQPPGKGLEWIGEVNHSGGTNLNSSLKSRVIISVDKSKKQFSLKLSSVTAADTAMYFCARGYSYDPKYYFDSWSQGTLVTVSS
VL: QSALTQPASVSGSPGQAITISCTGTSSDIGSYDFVSWYQQDPGKAPKVIIYGVNKRPSGVSNRFSGSKSGNTASLTISGLQADDEADYYCCSYAGSTTWVFGGGTKLTVL
In the case of B11, the binding result in assay [1] and in assay [2] was “binds” in each case.

B12: NI-302.8M1 (antibody, V domains shown)
VH: EVQLVQSGAEVKKPGASVKVSCKASGYTFTIYYMHWVRQAPGQGLEWMGGISPSGAHTMYAQNFQGRVTVTRDTSTSTVYMELSSLRSEDTAVYYCARGSTVTNYRPFDYWGQGTLVTVSS
VL: DIQMTQSPSSLSASVGDRVTITCRASQDISNYLAWYQQKPGKVPKLLIFAASTLQSGVPSRFGGSGSGTDFTLTISSLQPEDVATYYCQNYNSGPPPFGPGTKVDIK
Take B12: in assay [2], the binding result was “binds”.

B13: NI-302.4A6 (antibody, V domains shown)
VH: EVQLVESGGGLVQPGGSLRLSCAASGFTFSAYAMSWVRQAPGKGLEWVSTISGSGGSTYYADSVKGRFSISRDNSKNTLYLQMNSLRAEDTAVYFCAKVTTELYGANSYYYYMDVWGKGTTVTVSS
VL: EIVLTQSPGTLSLSPGERATLSCRASQSVVSRYLAWYQQKPGQAPRLLIYGASSRATGIPDRFSGSGSGTDFTLTISRLEPEDFAMYYCQLYGNSQTFGQGTKVEIK
Turning to B13, the binding result in assay [2] is “binds”.

B14: NI-302.15E8 (antibody, V domains shown)
VH: EVQLVESGGGLIQPGGSLRLSCAVSGFTVSSYSMNWVRQAPGKGLEWVSYTSSSRSNTKKYADSVKGRFTISRDNARNSLYLQMNSLRDEDTAVYYCARAGDFGELLTGEGYYGMDVWGQGTTVTVSS
VL: SYELTQPPSVSVSPGQTATITCSGDELGDKYVGWYQQKPGQSPLLVIYQDAKRPSGIPERFSGSNSGNTATLTISGTQAMDEADYYCQAWDSGTMVFGGGTRLTVL
notes: also called anti-N-terminal domain antibody
On to B14, for which the binding result in assay [5] and in assay [1] was “binds” throughout.

B15: NI-302.7D8 (antibody, V domains shown)
VH: QVQLVQSGSELKKPGASVKVSCKASGYNFNNYAINWLRQAPGQGLEWMGWINTITGHPTYAQGFKGRFVFSLDTSVSTAYLQISSLKPEDTAVYYCARTYSNYGEFDYWGQGTLVTVSS
VL: QSALTQPASVSGSRGQSITISCTGTSSDVGSYNLVSWYQQYPGKAPKLIIHEGSERPSGVSNRFSGSKSGNTASLTISGLQAEDEADYYCCSYAGTTTFVLFGGGTKLTVL
notes: also called anti-poly Q/P domain antibody
As for B15, the binding result in assay [2] is “binds”.

B16: NI-302.15F9 (antibody, human IgG1, V domains shown)
VH: EVQLVESGGGLVTPGGSLRLSCEASGFLFKNSSMNWVRQTPGKGLEWVSSIDTSATNYKYYADSVKGRFTISRDDATNSLYLQMNSLRADDTATYYCARGYYTPRDFDYWGQGTLVTVSS
VL: DVVMTQSPQTLSVSLGQAASISCRSSQSLLYRDNNTYLNWFHQRPGQSPRRLIYRASDRDSGVPDRFSGGGSGTDFTLKISGVEAEDVGTYYCMQGTHWPRTFGQGTKVEIK
notes: as for B2
Turning to B16, the “fold preference of HD49 vs. HD21” value in assay [6] is around 5 fold.

B17: NI-302.33C11 (antibody, V domains shown)
VH: EVQLVESGGGVVQPGNSLRLSCAASGFRFSDFGMHWVRQAPGKGLEWLALIWYDGGYKYYADSVKGRFTISRDNSKNTMFLQMNSLRAEDTAVYYCATHLEYCSRTTCYLGHWGQGTLVTVSS
VL: DIQLTQSPSFLSASVGDTVTFTCRASQGISDYLAWFQQKPGIAPKLLIYAASTLQTGVPSRFSGSGSGTEFTLTIRSLQSEDFGTYYCQQLKTYPYTFGQGTKVEIK
notes: also called anti-polyP domain antibody
Regarding B17, the 50% effective concentration (EC50) in assay [2] was around 0.1 nM.
